From the RNAGym collection of RNA variant scans (doi:10.1073/pnas.2313332121) come the findings set out here.

First the molecules themselves.
B1: TPR t1 (parent)
chain: GACCAAUCUGCCCUCAGAGCUCGAGAACAUCUUCGGAUGCAGAGGAGGCAGGCUUCGGUGGCGCGAUAGCGCCAACGUCCUCAACCUCCAAUGCAUCCCACCACAUGAUGAUGCCUGAAGAGCCUUGGUUUUUUG

In this series the parent is B1. Kind of series: polymerase ribozyme fitness, log enrichment relative to wild type (log ratio); higher = more active; in vitro selection for triplet polymerase activity. The gist of the method: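 Each subunit of a heterodimeric triplet polymerase ribozyme was represented by a PCR-built, transcribed mutant library that underwent triplicate single-round in vitro selection with frozen incubation at −7 °C. Extended constructs were recovered by gel excision, streptavidin-bead capture and RT-PCR, and Illumina sequencing of input and output libraries kept genotypes with ≥10 input reads and ≥1 read per output. Fitness is the logarithm of genotype enrichment relative to wild-type enrichment, from inverse-variance-weighted replicate averages, with a logarithm base of 2.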
Regarding G63C U96A, the “polymerase ribozyme fitness (log ratio)” value was -2.05. For the variant G19C G63U C80A G110C, the “polymerase ribozyme fitness (log ratio)” value was -6.93.

For U38G C56A G69U, the “polymerase ribozyme fitness (log ratio)” value is -1.9.

In the case of G60U A91C G93U C104A G117U, the “polymerase ribozyme fitness (log ratio)” value was -6. Turning to U14G C62U, the “polymerase ribozyme fitness (log ratio)” value was -1.97. For the variant A37U G45C A46C U78A, the “polymerase ribozyme fitness (log ratio)” value is -2.59. A119U G120C: the “polymerase ribozyme fitness (log ratio)” value was 1.55.

For A2U C40U C115A A121U, the “polymerase ribozyme fitness (log ratio)” value was determined as 0.0194. To C22G A29C C89A G120C belongs -6.79; to A84G G128C, -3.48; to C72U U112A G120C, 0.504. Regarding C53U C72A A91C C94G C101A, the “polymerase ribozyme fitness (log ratio)” value is -4.4.

Consider U7C G44U, for which the “polymerase ribozyme fitness (log ratio)” value was -0.497. For G10C G35A U59C U112A, the “polymerase ribozyme fitness (log ratio)” value was -5.77. Regarding C3A C15A A41U G58C G71U U92G C114G, the “polymerase ribozyme fitness (log ratio)” value was -5.03. For C12U C13U A74U C97A C123U C124A, the “polymerase ribozyme fitness (log ratio)” value is -4.56.

Consider G45C G69A, for which the “polymerase ribozyme fitness (log ratio)” value was -3.75. Take C89A U129C: the “polymerase ribozyme fitness (log ratio)” value is -2.03.

For C12G C53A G57U G60U C94U G107U, the “polymerase ribozyme fitness (log ratio)” value was -6.32. For the variant G61A A103U G113C, the “polymerase ribozyme fitness (log ratio)” value was -6.41.

With C40U C85A G113C, the “polymerase ribozyme fitness (log ratio)” value is -3.42. Consider G42A G61A C115A, for which the “polymerase ribozyme fitness (log ratio)” value was -1.62. U38A U130C: the “polymerase ribozyme fitness (log ratio)” value was -0.259. On to C49U C102A, for which the “polymerase ribozyme fitness (log ratio)” value was -3.24. On to U14C C53G C73U A83G C94U, for which the “polymerase ribozyme fitness (log ratio)” value was -3.11. Consider C28G G42A A43C G69U U96A C101U C124U, for which the “polymerase ribozyme fitness (log ratio)” value was -4.78. In the case of A6C G23A C98A C115G, the “polymerase ribozyme fitness (log ratio)” value was -7.8. Take A6U A100C U106A: the “polymerase ribozyme fitness (log ratio)” value was 0.0954. Consider G57U A84U G110A, for which the “polymerase ribozyme fitness (log ratio)” value was -2.32. For A18U G61A, the “polymerase ribozyme fitness (log ratio)” value was -1.19. Turning to C8A C64A, the “polymerase ribozyme fitness (log ratio)” value was -5.69.

As to C4A C56A, the “polymerase ribozyme fitness (log ratio)” value was -2.53. A18U U54A C72G: the “polymerase ribozyme fitness (log ratio)” value is -2.46. Turning to A6C C101A U132A, the “polymerase ribozyme fitness (log ratio)” value was -1.42. On to A6U C15A U21G G58A A90G U112C G127A, for which the “polymerase ribozyme fitness (log ratio)” value is -4.37. Regarding C70U C76G G77A G113C, the “polymerase ribozyme fitness (log ratio)” value is -3.85. The value for A37G C53A G63U U125A was -3.34; that for G47A C89A was -4.43. In the case of A2G A91U U96G G120U, the “polymerase ribozyme fitness (log ratio)” value was -2.53. Consider C49A G120U, for which the “polymerase ribozyme fitness (log ratio)” value was -0.22. Regarding G44A A68G C70G C72A G110A G122A C124A, the “polymerase ribozyme fitness (log ratio)” value is -7.69. The value for C31G C56U G61A G69A U87G C123G was -7.19; that for G61A U92C C114A was -2.51. In the case of C73A U87G U129A, the “polymerase ribozyme fitness (log ratio)” value is -1.12. On to U54G C85G G113C A118C, for which the “polymerase ribozyme fitness (log ratio)” value was -4.79. With G36C G42C G60C U130A, the “polymerase ribozyme fitness (log ratio)” value is -3.88. The value for C12A A37U U78C C82U A108G was -3.38; that for C56U A74C A75U C124U was 0.971; that for U96G C102G G113U was -5.71. With C70G G110U, the “polymerase ribozyme fitness (log ratio)” value was -4.62. Take U33G G36C: the “polymerase ribozyme fitness (log ratio)” value is -7.66. Regarding G48A U92A, the “polymerase ribozyme fitness (log ratio)” value is -3.51. To A121G belongs 1.88. Regarding G39U G45U C62U U112C, the “polymerase ribozyme fitness (log ratio)” value is -0.882.

For G45U U129G U132A, the “polymerase ribozyme fitness (log ratio)” value is -3.85. On to A2U C15A, for which the “polymerase ribozyme fitness (log ratio)” value was -4.12. Regarding G17U C124G G128C, the “polymerase ribozyme fitness (log ratio)” value was -1.84. As to C12A G93A, the “polymerase ribozyme fitness (log ratio)” value is -1.39. With U96G C123G, the “polymerase ribozyme fitness (log ratio)” value turned out to be 1.1. Take C22U G93U: the “polymerase ribozyme fitness (log ratio)” value was -5.26. The value for G117A G127C was -1.7; that for U9G G61A C80A A95C G110U C115A A119C was -7.18.

For G19A C62U U78G, the “polymerase ribozyme fitness (log ratio)” value is -3.47.

With C34A A41U G61C G120U, the “polymerase ribozyme fitness (log ratio)” value is -6.86.

Take C114G U126G: the “polymerase ribozyme fitness (log ratio)” value is -4.32. On to C12G G63A C115G G117U, for which the “polymerase ribozyme fitness (log ratio)” value is -4.35. Consider G51U U55A C64U C114G C115U C123U, for which the “polymerase ribozyme fitness (log ratio)” value is -7.28. To A2U C11U C79A C123A belongs -0.946.

As for C72U C85U G93U, the “polymerase ribozyme fitness (log ratio)” value is -2.45. In the case of C62U C76U G127A, the “polymerase ribozyme fitness (log ratio)” value is -2.58. U38A C80U: the “polymerase ribozyme fitness (log ratio)” value is -1.43.

G17A G71C: the “polymerase ribozyme fitness (log ratio)” value is -3.64. To U112A G128U U131C belongs 1.17; to A26U C97A A121U, -5.2. To G69C A105U U112G belongs -3.4; to A6C G63U C115A U116C, -4.89. As for G17U G39U G110U, the “polymerase ribozyme fitness (log ratio)” value is -4.99. On to A2C G71U G93A U112A G113C, for which the “polymerase ribozyme fitness (log ratio)” value was -4.56.

For the variant C13A A91C U96C, the “polymerase ribozyme fitness (log ratio)” value was -2.79. The value for U54G C85A was -1.99; that for G60U was 0.0514; that for U21G C40U U87G was -1.55. Take G10A G58C C123A: the “polymerase ribozyme fitness (log ratio)” value came out at 1.18.
